T1: BCMA (Homo sapiens (Human), UniProt Q02223 1-54, limits assumed)
T1 sequence: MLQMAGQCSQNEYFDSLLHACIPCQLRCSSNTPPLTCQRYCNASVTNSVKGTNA


Molecular target: T1, BCMA
Assay: ELISA, format not described
Design: unit not given here

Binder	ELISA_avg
D-domain SEQ ID NO: 271 (designed binder) MGSWNEFKYHLAVIKFYLEALGGSEAELAHFETWIAEFEYELQKYKGKGNPEVEALRKEAAAIRDELQAYRHN	13.7
D-domain SEQ ID NO: 278 (designed binder) MGSWQGFKYHLALIKFYLEALGGSEAELAHFEHWLAEFEHDLQTYKGKGNPEVEALRKEAAAIRDELQAYRHN	21.2
D-domain SEQ ID NO: 273 (designed binder) MGSWVDFKYHLAVIKFWLEALGGSEAELANFETWIANFEQELQMYKGKGNPEVEALRKEAAAIRDELQAYRHN	13.2
D-domain SEQ ID NO: 270 (designed binder) MGSWNQFKYRLAVIKFYLEALGGSEAELAHFETWIAAFEEQLQFYKGKGNPEVEALRKEAAAIRDELQAYRHN	12.8
D-domain SEQ ID NO: 232 (designed binder) MGSWGEFKHRLALIKWYLEALGGSEAELAHFEDWIAVFEVQLQNYKGKGNPEVEALRKEAAAIRDELQAYRHN	17.1
D-domain SEQ ID NO: 237 (designed binder) MGSWYNFKHRLAIIKWFLEALGGSEAELAVFEVWIADFEHQLQEYKGKGNPEVEALRKEAAAIRDELQAYRHN	16.4
D-domain SEQ ID NO: 238 (designed binder) MGSWDAFKHRLALIKWYLEALGGSEAELAHFEEYIAEFESNLQSYKGKGNPEVEALRKEAAAIRDELQAYRHN	13
D-domain SEQ ID NO: 233 (designed binder) MGSWYEFKHRLAIIKWYLEALGGSEAELAKFEAWIAEFEMILQRYKGKGNPEVEALRKEAAAIRDELQAYRHN	5.5
D-domain SEQ ID NO: 254 (designed binder) MGSWGYFKYRLAMIKWYLEALGGSEAELASFESWIAEFEGSLQAYKGKGNPEVEALRKEAAAIRDELQAYRHN	13
D-domain SEQ ID NO: 248 (designed binder) MGSWHEFKYRLALIKWYLEALGGSEAELATFEHHIAQFEWDLQKYKGKGNPEVEALRKEAAAIRDELQAYRHN	16.2
D-domain SEQ ID NO: 236 (designed binder) MGSWFQFKHRLAIIKWQLEALGGSEAELAWFEQWIADFEHQLQHYKGKGNPEVEALRKEAAAIRDELQAYRHN	10.4
D-domain SEQ ID NO: 240 (designed binder) MGSWNGFKHRLAIIKWYLEALGGSEAELASFESYIAEFESGLQEYKGKGNPEVEALRKEAAAIRDELQAYRHN	16.5
D-domain SEQ ID NO: 235 (designed binder) MGSWYNFKHRLAIIKWYLEALGGSEAELARFENFIANFETQLQLYKGKGNPEVEALRKEAAAIRDELQAYRHN	6.76
D-domain SEQ ID NO: 265 (designed binder) MGSWANFKYRLALIKWHLEALGGSEAELASFEIWIADFEESLQWYKGKGNPEVEALRKEAAAIRDELQAYRHN	14.3
D-domain SEQ ID NO: 264 (designed binder) MGSWAHFKYRLAIIKFWLEALGGSEAELANFEEYIAEFESTLQVYKGKGNPEVEALRKEAAAIRDELQAYRHN	13.1
D-domain SEQ ID NO: 244 (designed binder) MGSWYGFKYRLAVIKWYLEALGGSEAELASFEKYIAHFEHDLQAYKGKGNPEVEALRKEAAAIRDELQAYRHN	9.05
D-domain SEQ ID NO: 250 (designed binder) MGSWHGFKYRLAIIKWWLEALGGSEAELAFFEEWIASFERDLQIYKGKGNPEVEALRKEAAAIRDELQAYRHN	6.03
D-domain SEQ ID NO: 242 (designed binder) MGSWSDFKYRLAVIKFYLEALGGSEAELASFESFIAHFEDDLQKYKGKGNPEVEALRKEAAAIRDELQAYRHN	13
D-domain SEQ ID NO: 263 (designed binder) MGSWTAFKYRLAIIKFYLEALGGSEAELAHFESYIAHFEDMLQHYKGKGNPEVEALRKEAAAIRDELQAYRHN	7.43
D-domain SEQ ID NO: 245 (designed binder) MGSWYGFKYRLAVIKWYLEALGGSEAELASFEKYIAQFEHDLQAYKGKGNPEVEALRKEAAAIRDELQAYRHN	7.63
D-domain SEQ ID NO: 253 (designed binder) MGSWSGFKYRLAVIKWYLEALGGSEAELATFEEWIAEFETELQFYKGKGNPEVEALRKEAAAIRDELQAYRHN	14

The next lines start with the values.

ELISA_avg	Binder
11.6	D-domain SEQ ID NO: 255 (designed binder) MGSWHAFKYKLAMIKWYLEALGGSEAELAHFEEWIAEFEALLQEYKGKGNPEVEALRKEAAAIRDELQAYRHN
8.85	D-domain SEQ ID NO: 277 (designed binder) MGSWYHFKYHLALIKWYLEALGGSEAELAHFEHWIAEFEWTLQQYKGKGNPEVEALRKEAAAIRDELQAYRHN
12.7	D-domain SEQ ID NO: 272 (designed binder) MGSWVQFKYHLAVIKFYLEALGGSEAELAHFETWIAEFEVALQGYKGKGNPEVEALRKEAAAIRDELQAYRHN
7.93	D-domain SEQ ID NO: 276 (designed binder) MGSWSHFKYHLALIKWYLEALGGSEAELAKFEFWIAEFEHNLQMYKGKGNPEVEALRKEAAAIRDELQAYRHN
10.6	D-domain SEQ ID NO: 268 (designed binder) MGSWNTFKYHLAVIKFMLEALGGSEAELAFFEQWIAEFEVTLQSYKGKGNPEVEALRKEAAAIRDELQAYRHN
21.1	D-domain SEQ ID NO: 269 (designed binder) MGSWTQFKYHLAVIKWYLEALGGSEAELAGFEQWIAEFEKTLQEYKGKGNPEVEALRKEAAAIRDELQAYRHN
23.6	D-domain SEQ ID NO: 239 (designed binder) MGSWDGFKHRLALIKWYLEALGGSEAELANFENWIAEFEQRLQYYKGKGNPEVEALRKEAAAIRDELQAYRHN
10.3	D-domain SEQ ID NO: 241 (designed binder) MGSWNSFKHRLALIKWYLEALGGSEAELATFEWYIASFESELQQYKGKGNPEVEALRKEAAAIRDELQAYRHN
14.8	D-domain SEQ ID NO: 234 (designed binder) MGSWYEFKHRLAIIKWYLEALGGSEAELAHFEQYIADFEGTLQKYKGKGNPEVEALRKEAAAIRDELQAYRHN
16.3	D-domain SEQ ID NO: 249 (designed binder) MGSWNMFKYRLAHIKWYLEALGGSEAELATFEAYIADFEVDLQKYKGKGNPEVEALRKEAAAIRDELQAYRHN
7.37	D-domain SEQ ID NO: 267 (designed binder) MGSWTHFKYRLALIKWWLEALGGSEAELAGFEVHIADFEAQLQMYKGKGNPEVEALRKEAAAIRDELQAYRHN
15.1	D-domain SEQ ID NO: 266 (designed binder) MGSWATFKYRLALIKWHLEALGGSEAELADFEEYIAGFEEGLQKYKGKGNPEVEALRKEAAAIRDELQAYRHN
11	D-domain SEQ ID NO: 260 (designed binder) MGSWEQFKYRLAIIKYMLEALGGSEAELAWFESWIANFESDLQHYKGKGNPEVEALRKEAAAIRDELQAYRHN
15.1	D-domain SEQ ID NO: 261 (designed binder) MGSWQQFKYRLAIIKYYLEALGGSEAELAGFETYIAKFEEVLQSYKGKGNPEVEALRKEAAAIRDELQAYRHN
12.7	D-domain SEQ ID NO: 262 (designed binder) MGSWAGFKYRLAVIKYYLEALGGSEAELAHFEQWIAHFEGMLQDYKGKGNPEVEALRKEAAAIRDELQAYRHN
13	D-domain SEQ ID NO: 246 (designed binder) MGSWYGFKYRLALIKWYLEALGGSEAELASFETYIADFEDLLQAYKGKGNPEVEALRKEAAAIRDELQAYRHN
15.1	D-domain SEQ ID NO: 257 (designed binder) MGSWNDFKYRLAIIKYYLEALGGSEAELAHFESYIASFEHDLQNYKGKGNPEVEALRKEAAAIRDELQAYRHN
12.9	D-domain SEQ ID NO: 258 (designed binder) MGSWGAFKYRLAIIKFYLEALGGSEAELARFEEFIANFEHDLQNYKGKGNPEVEALRKEAAAIRDELQAYRHN
13.1	D-domain SEQ ID NO: 243 (designed binder) MGSWSGFKYRLAVIKFYLEALGGSEAELASFELFIAKFEIDLQNYKGKGNPEVEALRKEAAAIRDELQAYRHN
11.7	D-domain SEQ ID NO: 247 (designed binder) MGSWSTFKYHLAVIKWYLEALGGSEAELASFEDYIAQFETDLQEYKGKGNPEVEALRKEAAAIRDELQAYRHN
19.9	D-domain SEQ ID NO: 259 (designed binder) MGSWYNFKYRLAIIKFYLEALGGSEAELAQFEIWIAEFEHDLQGYKGKGNPEVEALRKEAAAIRDELQAYRHN
8.91	D-domain SEQ ID NO: 256 (designed binder) MGSWQHFKYRLAIIKWYLEALGGSEAELAFFESFIAKFEHDLQKYKGKGNPEVEALRKEAAAIRDELQAYRHN
7.75	D-domain SEQ ID NO: 252 (designed binder) MGSWQGFKYRLAVIKWMLEALGGSEAELAFFENWIAEFETKLQQYKGKGNPEVEALRKEAAAIRDELQAYRHN
5.99	D-domain SEQ ID NO: 251 (designed binder) MGSWHGFKYRLAVIKWYLEALGGSEAELAMFEGWIAQFEITLQQYKGKGNPEVEALRKEAAAIRDELQAYRHN

Reference: patent US20250026849A1 (ARCELLX, published 2025)
